Measurements: article PMC10204903 (Cell, 2022)

B1: mAb 9.20.1C3 (antibody, V domains shown)
VH: QVQLVQSGAEVKKPGSSVKVACKVSGGTFSSYTISWVRQAPGQGLEWMGGIIPSFGVGHYSQKFRDRVTLTADKSTTTAFLELSSVRSEDTALYYCAILGTFNWKSGGNYFGPWGQGTLVTVSS
VL: DIVLTQSPDSLAASLGERATISCKSSHSVLYSSNNKDFFAWYQQKPGQPPKLLISWASTRESGVPVRFNGGGSGTHFTLTISSLQAEDVAVYYCQQYFSSPITFGQGTRLEIK
B2: mAb 5.24.1C11 (antibody, V domains shown)
VH: QVQLVQSGAEVKKPGASVKVSCRTSGYTFSSYNIHWVRQAPGQGLEWMGVINPYGRSTTLYARRFRDRVTMTRDTSTSTVYMELSSLRSEDTAVYFCGRLYSGAPYGLDVWGQGSTVTVSS
VL: DIVMTQSPLSLPVTPGEPASISCRSSQSLLHSNGYNYVDWYLQKPGQSPQLLIYLGSSRASGVPDRFSGSGSGTDFTLKISRVETEDVGIYYCMQGLQTPLTFGGGTKVEIK

What was measured:
Test in all cases: ELISA
BDBV GP ectodomain = BDBV GP ectodomain (Bundibugyo virus; strain of the bought …, UniProt B8XCN0)
[1] = biological target: EBOV soluble glycoprotein (sGP) (Ebola virus (EBOV), UniProt P60170)
SUDV GP ectodomain = SUDV GP ectodomain (Sudan virus (SUDV), UniProt Q7T9D9)

Binder | binding result (BDBV GP ectodomain) | binding result [1] | binding result (SUDV GP ectodomain)
B1 | binds | no binding | binds
B2 | binds | no binding | binds
